The text below walks through data of publication PMC13681993 (2026).

Experiment [1] has as its target T1, EGFR C-tail Y1016/Y1138 980-1210 (Homo sapiens, UniProt P00533).
T1 chain: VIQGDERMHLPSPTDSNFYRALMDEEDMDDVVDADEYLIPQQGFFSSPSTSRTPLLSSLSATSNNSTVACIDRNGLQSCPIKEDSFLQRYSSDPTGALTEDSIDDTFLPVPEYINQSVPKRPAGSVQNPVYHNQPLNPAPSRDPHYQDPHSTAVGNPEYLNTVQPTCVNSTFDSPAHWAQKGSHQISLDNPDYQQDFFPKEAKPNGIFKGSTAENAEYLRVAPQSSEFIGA
Kind of experiment: BLI.

Experiment [2] deals with T2, EGFR C-tail Y1016/Y1092 980-1210 (Homo sapiens, UniProt P00533).
T2 chain: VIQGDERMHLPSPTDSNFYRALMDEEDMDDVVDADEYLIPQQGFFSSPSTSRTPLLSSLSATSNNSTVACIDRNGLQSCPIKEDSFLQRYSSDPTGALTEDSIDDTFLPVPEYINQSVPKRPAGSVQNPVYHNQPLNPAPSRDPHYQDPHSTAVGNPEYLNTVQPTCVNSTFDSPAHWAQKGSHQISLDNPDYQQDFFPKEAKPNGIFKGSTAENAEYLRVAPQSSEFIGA
The experiment in a line: BLI.

B1: PLCγ1 tandem SH2 N-SH2-C-SH2 (protein)
chain: WFHGKLGAGRDGRHIAERLLTEYCIETGAPDGSFLVRESETFVGDYTLSFWRNGKVQHCRIHSRQDAGTPKFFLTDNLVFDSLYDLITHYQQVPLRCNEFEMRLSEPVPQTNAHESKEWYHASLTRAQAEHMLMRVPRDGAFLVRKRNEPNSYAISFRAEGKIKHCRVQQEGQTVMLGNSEFDSLVDLISYYEKHPLYRKMKLRYPI
A word on the Kd: it is the equilibrium constant for the complex coming apart. Read a high Kd as a looser complex. As for B1, the Kd was 63.4 nM in experiment [1] and 429 nM in experiment [2].
